According to the supplement of paper PMC7877785:
± gives the uncertainty stated by the source.

Assay: self-splicing fitness, log relative to wild type (ln ratio); higher = more splicing; Tetrahymena group I intron in knt gene, E. coli kanamycin selection, DiMSum; sequences stand for … in CUCUCU…GGAGGGAAAAGUUAUCAGGCAUGCACCUGGUAGCUAGUCUUUAAACCAAUAGAUUGCAUCGGUUUAAAAGGCAAGACCGUCAAAUUGCGGGAAAGGGGUCAACAGCCGUUCAGUACCAAGUCUCAGGGGAAACUUUGAGAUGGCCUUGCAAAGGGUAUGGUAAUAAGCUGACGGACAUGGUCCUAACCACGCAGCCAAGUCCUAAGUCAACAGAUCUUCUGUUGAUAUGGAUGCAGUUCACAGACUAAAUGUCGGUCGGGGAAGAUGUAUUCUUCUCAUAAGAUAUAGUCGGACCUCUCCUUAAUGGGAGCUAGCGGAUGAAGUGAUGCAACACUGGAGCCGCUGGGAACUAAUUUGUAUGCGAAAGUAUAUUGAUUAGUUUUGGAGUACUCGUGGUCG
Method in brief: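 Pooled colonies went to amplicon sequencing on an Illumina HiSeq 2500 after six replicate transformations. The plates were LB agar with 100 μg/mL carbenicillin, 50 μM IPTG and 0.2% rhamnose, with or without 25 μg/mL kanamycin, incubated overnight at 37°C or 30°C. The E. coli BL21(DE3) library had all eight P1ex-region intron nucleotides randomised, the intron placed in the knt kanamycin-resistance gene on pET-22b(+). DiMSum fitness is the error-weighted combination of replicate fold changes, kanamycin against none, normalised to wild type.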

Sequence | self-splicing fitness (ln) (30 °C) | self-splicing fitness (ln) (37 °C)
UAACAGCAAUAUUACGUUUA | -0.893 ± 0.063 | -0.563 ± 0.071
UGUCAGCAAUAUUACGCUAU | -1.83 ± 0.11 | -1.3 ± 0.12
CAGGAGCAAUAUUACGUCCG | 0.726 ± 0.21 | 0.304 ± 0.29
AUACAGCAAUAUUACGUACU | -0.171 ± 0.059 | 0.38 ± 0.083
UCGCAGCAAUAUUACGGCAU | -1.99 ± 0.074 | -0.415 ± 0.077
GUUGAGCAAUAUUACGUUAC | -2.2 ± 0.13 | -2.21 ± 0.24
AAACAGCAAUAUUACGAUGA | -1.34 ± 0.067 | -0.0116 ± 0.067
AUCUAGCAAUAUUACGUCUA | -2.83 ± 0.25 | -1.59 ± 0.21
UUCCAGCAAUAUUACGAAGU | – | -1.47 ± 0.32
UCCUAGCAAUAUUACGGUAG | -3.32 ± 0.32 | -2.28 ± 0.29
CGACAGCAAUAUUACGAGGA | -3.91 ± 0.2 | -2.53 ± 0.18
GGUGAGCAAUAUUACGGUAG | -2.67 ± 0.22 | -2.59 ± 0.33
GAGCAGCAAUAUUACGUUGA | -2.38 ± 0.17 | -1.32 ± 0.13
GGAAAGCAAUAUUACGGAAA | -2.04 ± 0.22 | -1.25 ± 0.24
AAUCAGCAAUAUUACGUGUG | -0.753 ± 0.053 | -0.737 ± 0.067
GAAAAGCAAUAUUACGUAUA | -0.936 ± 0.098 | -0.833 ± 0.12
AAGGAGCAAUAUUACGAGCA | -2.24 ± 0.45 | -0.592 ± 0.4
GUCGAGCAAUAUUACGCAGU | -2.71 ± 0.17 | -1.17 ± 0.14
AGCCAGCAAUAUUACGCGCU | -3.07 ± 0.24 | -2.15 ± 0.25
GGCGAGCAAUAUUACGGAGC | – | -2.17 ± 0.37
CGUAAGCAAUAUUACGAUCC | -2.82 ± 0.33 | -1.82 ± 0.3
GGACAGCAAUAUUACGGAUG | -3.44 ± 0.16 | -0.131 ± 0.11
CGGCAGCAAUAUUACGGGAU | -3.24 ± 0.18 | -2.38 ± 0.23
UUCAAGCAAUAUUACGUAAU | -2.49 ± 0.087 | -1.56 ± 0.1
AUCCAGCAAUAUUACGUACA | -1.28 ± 0.11 | -0.729 ± 0.18
UCGUAGCAAUAUUACGUGCA | -1.18 ± 0.094 | -1.14 ± 0.12

Sequence | self-splicing fitness (ln) (30 °C) | self-splicing fitness (ln) (37 °C)
CCGUAGCAAUAUUACGGCUG | -2.46 ± 0.21 | -1.19 ± 0.17
AUAGAGCAAUAUUACGCGUU | -1.47 ± 0.12 | -0.672 ± 0.13
GCUGAGCAAUAUUACGGAUU | -2.33 ± 0.1 | -1.26 ± 0.11
AGCUAGCAAUAUUACGUCGC | -3.1 ± 0.18 | -2.77 ± 0.36
AGUAAGCAAUAUUACGAAGA | -2.88 ± 0.28 | -2.82 ± 0.35
GCACAGCAAUAUUACGCAGA | -3.16 ± 0.28 | -3.06 ± 0.29
UAUAAGCAAUAUUACGGGAU | -3.79 ± 0.32 | -2.86 ± 0.19
GCACAGCAAUAUUACGACCU | -0.6 ± 0.11 | -0.325 ± 0.13
UUCGAGCAAUAUUACGGAGC | – | -3.16 ± 0.38
CUGUAGCAAUAUUACGGCGU | -3.75 ± 0.33 | -2.2 ± 0.33
CCAUAGCAAUAUUACGCAGG | -3.98 ± 0.28 | -3.18 ± 0.35
CAUGAGCAAUAUUACGCUCC | – | -1.38 ± 0.48
UUCUAGCAAUAUUACGAGUC | – | -1.86 ± 0.39
UGUAAGCAAUAUUACGUGCC | -1.46 ± 0.2 | -0.0201 ± 0.22
CAGGAGCAAUAUUACGGAGG | -2.02 ± 0.095 | -1.21 ± 0.12
UCUGAGCAAUAUUACGGGAA | – | -1.82 ± 0.33
GCAAAGCAAUAUUACGUUCC | -0.778 ± 0.082 | -0.849 ± 0.14
GAAAAGCAAUAUUACGAUGG | -2.73 ± 0.13 | -0.913 ± 0.12
CAUCAGCAAUAUUACGCGCG | 0.0702 ± 0.07 | 0.438 ± 0.084
GUCCAGCAAUAUUACGAACG | -1.52 ± 0.13 | -0.855 ± 0.16
CACCAGCAAUAUUACGAUAU | -3.22 ± 0.17 | -2.46 ± 0.2
CUCAAGCAAUAUUACGUCCG | -2.08 ± 0.12 | -1.38 ± 0.13
CAUCAGCAAUAUUACGUUUG | -1.57 ± 0.064 | -0.71 ± 0.089
CUAGAGCAAUAUUACGACGC | – | -0.974 ± 0.32
CAACAGCAAUAUUACGACUG | -0.232 ± 0.052 | 0.0876 ± 0.072
AUUUAGCAAUAUUACGUUGA | -1.32 ± 0.2 | -2.27 ± 0.26

Sequence | self-splicing fitness (ln) (30 °C) | self-splicing fitness (ln) (37 °C)
CAAAAGCAAUAUUACGCAUG | -3.93 ± 0.19 | -0.824 ± 0.15
GCCCAGCAAUAUUACGGGCA | -2.35 ± 0.2 | -2.69 ± 0.21
UAUUAGCAAUAUUACGGGUG | -0.149 ± 0.069 | 0.0549 ± 0.098
UCAAAGCAAUAUUACGCGUG | -1.31 ± 0.057 | -0.871 ± 0.066
GUUUAGCAAUAUUACGCCUG | -2.62 ± 0.25 | -1.39 ± 0.26
UGGGAGCAAUAUUACGUCAC | -1.96 ± 0.36 | –
CGUAAGCAAUAUUACGACGC | -1.86 ± 0.3 | -2.02 ± 0.28
GACCAGCAAUAUUACGUGAG | -1.33 ± 0.055 | -1 ± 0.064
UAACAGCAAUAUUACGAAAU | -3.46 ± 0.14 | -2.52 ± 0.18
GUGAAGCAAUAUUACGCUGA | -1.32 ± 0.092 | -1.09 ± 0.13
UUGAAGCAAUAUUACGGGGG | -2.59 ± 0.17 | -1.9 ± 0.19
AUCAAGCAAUAUUACGGUUG | -3.05 ± 0.25 | -1.92 ± 0.19
GGCUAGCAAUAUUACGUAGC | -4.64 ± 0.42 | -2.16 ± 0.43
UUCCAGCAAUAUUACGUAUC | -1.29 ± 0.15 | -2.83 ± 0.34
GCGUAGCAAUAUUACGAGAC | -1.13 ± 0.2 | -2.37 ± 0.39
UCUCAGCAAUAUUACGGUUG | -3.46 ± 0.17 | -2.41 ± 0.21
AAGAAGCAAUAUUACGAAAG | -3.5 ± 0.21 | -1.69 ± 0.13
UCCCAGCAAUAUUACGGUUC | -2.43 ± 0.11 | -1.8 ± 0.14
GUAAAGCAAUAUUACGCGUU | -1.65 ± 0.088 | -0.906 ± 0.099
UUAUAGCAAUAUUACGGUAA | -1.31 ± 0.17 | -0.924 ± 0.17
UAUAAGCAAUAUUACGACGC | -3.44 ± 0.23 | -1.19 ± 0.17
GCCGAGCAAUAUUACGACAG | -1.9 ± 0.22 | -2.16 ± 0.23
UUAUAGCAAUAUUACGGGGA | -1.89 ± 0.13 | -1.38 ± 0.15
GACAAGCAAUAUUACGAAAU | -2.47 ± 0.14 | -0.766 ± 0.14
UGAAAGCAAUAUUACGUUGC | -3.54 ± 0.19 | -2.58 ± 0.21
